Patent US20260098102A1 (NATIONAL UNIVERSITY CORPORATION KOBE UNIVERSITY, published 2026)
One block for each binder: values may come before it.

Tests used:
[1] = molecular target: T1, human SIRPA_V1 protein (human, UniProt P78324 31-504); assay: cell-based ELISA on 293α cells expressing FLAG-tagged SIRPA_V1; Abs 490 normalized to FLAG tag
T1 construct: Expressed on 293α cells from pcDNA3.2 V5-DEST or pFLAG V5-DEST (FLAG-tagged) vectors; also called human SIRPA Variant 1; hSIRPA V1
Experimental: (§1) The 293α cells [described in Example 1)-6] were prepared in a 10% FBS-containing DMEM medium to 5×10⁵ cells/mL. pFLAG V5-DEST-SIRPA_V1, pFLAG V5-DEST-SIRPA_V2, or pFLAG V5-DEST was introduced into the cells using Lipofectamine LTX (Invitrogen), followed by addition of 100 μL per well to a 96-well plate (Corning Incorporated), and cells were cultured overnight in the 10% FBS-containing DMEM medium at 37° C. under a 5% CO₂ condition. The obtained introduced cells were used for cell-based ELISA in a state that they adhered to each other. After the culture supernatant was removed, 50 μL per well of the cD13 (IgG2 and IgG4pf), cF44 (IgG1, IgG2, IgG4p, and IgG4pf), and cF63 (IgG2 and IgG4pf) antibodies prepared in Examples 3 and 4 were added to each of pFLAG V5-DEST-SIRPA_V1, pFLAG V5-DEST-SIRPA_V2, or pFLAG V5-DEST-introduced cells at final concentrations of 0 to 10,000 ng/mL, and the mixture was allowed to stand at 4° C. for one hour. Further, 50 μL per well of anti-FLAG M2 antibody (SIGMA) diluted with 5% FBS-containing PBS to a final concentration of 10,000 ng/mL was added to a well for detecting expression of each SIRPA construct, and the mixture was allowed to stand at 4° C. for one hour. The cells in the well were washed once with 5% FBS-containing PBS, followed by addition of Peroxidase AffiniPure F(ab′)₂ Fragment Goat Anti-Human IgG, Fcγ Fragment Specific (Jackson ImmunoResearch) diluted 1000-fold with 5% FBS-containing PBS, and the mixture was allowed to stand at 4° C. for one hour. The cells in the well were washed five times with 5% FBS-containing PBS, followed by addition of 100 μL per well of an OPD coloration solution [o-phenylenediamine dihydrochloride (Wako Pure Chemical Industries, Ltd.) and H₂O₂ were dissolved in an OPD solution (0.05 M trisodium citrate, 0.1 M disodium hydrogen phosphate dodecahydrate, pH 4.5) at 0.4 mg/mL and 0.6% (v/v), respectively]. A coloration reaction was performed with stirring occasionally, 100 μL per well of 1 M HCl was added to terminate the coloration reaction, and then absorbance at 490 nm was measured with a plate reader ARVO (PerkinElmer Inc.). Binding of the human chimeric anti-human SIRPA antibodies to each construct was standardized by expression of the FLAG tag.

[2] = molecular target: T2, human SIRPA_V2 protein (human, UniProt P78324 31-504); assay: cell-based ELISA on 293α cells expressing FLAG-tagged SIRPA_V2; Abs 490 normalized to FLAG tag
T2 construct: Expressed on 293α cells from pcDNA3.2 V5-DEST or pFLAG V5-DEST (FLAG-tagged) vectors; also called human SIRPA Variant 2; ECD variant (full-length, amino acids 1 to 504)
T2 sequence (P78324 other isoform, or with tags, fused parts or gaps limits assumed): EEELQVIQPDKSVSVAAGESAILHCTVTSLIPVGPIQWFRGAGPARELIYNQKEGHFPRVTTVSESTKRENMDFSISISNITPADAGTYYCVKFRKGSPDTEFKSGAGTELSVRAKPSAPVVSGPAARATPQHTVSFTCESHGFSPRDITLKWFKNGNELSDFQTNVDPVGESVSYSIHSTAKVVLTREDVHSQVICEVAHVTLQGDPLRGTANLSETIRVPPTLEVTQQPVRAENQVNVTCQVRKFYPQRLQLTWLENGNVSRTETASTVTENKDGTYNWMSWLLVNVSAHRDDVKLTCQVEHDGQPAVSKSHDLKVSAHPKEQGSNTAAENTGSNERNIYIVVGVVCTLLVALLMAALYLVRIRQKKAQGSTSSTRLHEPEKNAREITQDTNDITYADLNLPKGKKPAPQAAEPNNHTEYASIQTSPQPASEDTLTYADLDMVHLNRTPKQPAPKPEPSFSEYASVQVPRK
Experimental: as §1

[3] = molecular target: T1, human SIRPA_V1 protein; assay: blocking cell-based ELISA: peroxidase-labeled CD47-Fc (10,000 ng/mL) on 293α cells expressing SIRPA_V1; y axis = CD47-Fc signal in % of no antibody [i]
Experimental: After the culture supernatant of the human SIRPA and monkey SIRPA expression vector-introduced 293α cells prepared in Examples 5)-1 and 5)-2, respectively, was removed, 50 μL per well of cD13 (IgG2 and IgG4pf), cF44 (four different constant regions IgG1, IgG2, IgG4p, and IgG4pf), and cF63 (IgG2 and IgG4pf) diluted with 5% FBS-containing PBS to final concentrations of 0 to 10,000 ng/mL were added to each of pcDNA3.2 V5-DEST-SIRPA_V1, pcDNA3.2 V5-DEST-monkey SIRPA, and pcDNA3.2 V5-DEST-introduced 293α cells, immediately followed by addition of 50 μL per well of peroxidase-labeled CD47-Fc prepared in 5% FBS-containing PBS at a final concentration of 10,000 ng/ml, and the mixture was allowed to stand at 4° C. for one hour. Thereafter, the SIRPA-CD47 binding inhibitory activity was evaluated in the same manner as in 1)-6-3.

[4] = molecular target: T2, human SIRPA_V2 protein; assay: blocking cell-based ELISA: peroxidase-labeled CD47-Fc (10,000 ng/mL) on 293α cells expressing SIRPA_V2; y axis = CD47-Fc signal in % of no antibody [ii]
[5] = molecular target: T3, SIRPA_V1_IgV (human, UniProt P78324 31-149); assay: SPR Biacore T200, antibody captured on anti-human IgG (Fc), SIRPA_V1_IgV as analyte (0.25 to 16 nM), 1:1 model
T3 construct: Secreted recombinant protein from FreeStyle 293F cells
T3 sequence (P78324 other isoform, or with tags, fused parts or gaps limits assumed): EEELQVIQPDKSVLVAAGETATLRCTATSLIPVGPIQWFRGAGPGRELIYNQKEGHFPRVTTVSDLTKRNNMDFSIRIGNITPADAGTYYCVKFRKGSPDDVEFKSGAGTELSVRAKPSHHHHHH
Experimental: The dissociation constants were measured by a capture method comprising capturing each antibody as a ligand to an Anti-Human IgG (Fc) antibody immobilized using Human Antibody Capture Kit (GE Healthcare Bioscience Corp.) and measuring an antigen as an analyte, using Biacore T200 (GE Healthcare Bioscience Corp.). HBS-EP+ (GE Healthcare Bioscience Corp.) was used as a running buffer, and CM5 (GE Healthcare Bioscience Corp.) was used as a sensor chip. Onto the chip, 2 μg/mL of various antibodies were added at 10 μL/min for 30 seconds, then a serially diluted solution (0.25 to 16 nM) of the human SIRPA protein as an antigen was added at a flow rate of 30 μL/min for 120 seconds, and subsequently the dissociation phase for 600 seconds was monitored. As a regenerant, 3 M magnesium chloride (GE Healthcare Bioscience Corp.) was added at a flow rate of 20 μL/min for 30 seconds. For data analysis, a binding rate constant (ka), a dissociation rate constant (kd), and a dissociation constant (KD; KD=kd/ka) were calculated using a 1:1 binding model.

[6] = molecular target: T1, human SIRPA_V1 protein; assay: blocking cell-based ELISA: peroxidase-labeled CD47-Fc (1 µg/mL) on 293α cells expressing SIRPA_V1
Experimental: After the culture supernatant of the human SIRPA_V1 or V2 expression vector-introduced 293 cells prepared in Example 9)-1 was removed, 50 μL per well of various anti-SIRPA antibodies or various control Human IgG diluted with 5% FBS-containing PBS to a final concentration of 0 to 10,000 ng/ml was added to each of pcDNA3.2 V5-DEST-SIRPA_V1 or V2-introduced 293α cells, immediately followed by addition of 50 µL per well of peroxidase-labeled CD47-Fc prepared with 5% FBS-containing PBS at 1 μg/mL, and the mixture was allowed to stand at 4° C. for one hour. Thereafter, the SIRPA-CD47 binding inhibitory activity was evaluated in the same manner as in 1)-6-3.

[7] = molecular target: T4, human SIRPB (human, UniProt O00241 30-398); assay: flow cytometry on CHO-K1 cells expressing FLAG-tagged human SIRPB; PE anti-human IgG; MFI standardized to secondary antibody alone
T4 construct: whole, on cells; FLAG-tagged (pFLAG V5-DEST), on CHO-K1 cells; also called SIRPβ1; signal regulatory protein β1
T4 sequence (O00241 30-398): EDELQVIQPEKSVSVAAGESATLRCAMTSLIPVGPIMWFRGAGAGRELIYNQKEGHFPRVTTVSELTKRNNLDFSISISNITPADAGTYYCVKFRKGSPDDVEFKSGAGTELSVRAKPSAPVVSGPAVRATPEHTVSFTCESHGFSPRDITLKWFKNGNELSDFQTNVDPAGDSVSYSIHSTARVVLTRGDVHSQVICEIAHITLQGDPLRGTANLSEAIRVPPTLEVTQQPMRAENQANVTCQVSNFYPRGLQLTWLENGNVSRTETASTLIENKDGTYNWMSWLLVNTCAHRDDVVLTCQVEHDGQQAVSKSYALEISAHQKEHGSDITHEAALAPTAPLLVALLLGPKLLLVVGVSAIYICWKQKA
Experimental: SIRPβ1 (signal regulatory protein β1: the amino acid sequence thereof is published as RefSeq accession number NP_006056) and SIRPγ (signal regulatory protein γ: the amino acid sequence thereof is published as RefSeq accession number NP_061026) are molecules belonging to the SIRPA family. In the present invention, “SIRPα” may be referred to as “SIRPA,” “SIRPβ1” may be referred to as […] and “SIRPγ” may be referred to as “SIRPG.” CHO-K1 cells were prepared in a 10% FBS-containing Ham's F-12K medium at 3.3×10⁵ cells/mL and cultured overnight at 37° C. under a 5% CO₂ condition. pFLAG V5-DEST-human SIRPβ, pFLAG V5-DEST-human SIRPG, or pFLAG V5-DEST was introduced into the cells using Lipofectamine LTX (Invitrogen), and cells were cultured in a 10% FBS-containing Ham's F-12K medium at 37° C. under a 5% CO₂ condition for 24 hours. The obtained introduced cells were collected and seeded on a 96-well plate. After the culture supernatant was removed, 100 μL per well of various anti-human SIRPA antibodies or various control human IgG was added to each of various gene introduced cells at a final concentration of 0 to 10,000 ng/mL, and the mixture was allowed to stand at 4° C. for 25 minutes. After the mixture was centrifuged, the supernatant was removed, and cells were washed twice with 5% FBS-containing PBS. After the mixture was centrifuged, the supernatant was removed, 50 μL per well of a 1/400 diluted solution of PE Mouse anti-Human IgG antibody (BioLegend) was added, and the mixture was allowed to stand at 4° C. for 25 minutes. After the mixture was centrifuged, the supernatant was removed, and cells were washed twice with 5% FBS-containing PBS.
After the mixture was centrifuged, and the supernatant was removed, cells were suspended in 100 μL per well of 1× BD Stabilizing Fixative (Becton Dickinson), and the cell count was measured by flow cytometry (FACS Canto II: Becton Dickinson). For data analysis, FlowJo (TreeStar) was used. Cells were characterized by detecting forward scattered (FSC) light and side-scattered (SSC) light, and then the mean fluorescence intensity of PE was calculated. Binding of various antibodies to the family molecules was calculated by standardizing the fluorescence intensity using the mean fluorescence intensity of a sample in which the secondary antibody alone was allowed to react.

T1 sequence (P78324 31-504 limits assumed): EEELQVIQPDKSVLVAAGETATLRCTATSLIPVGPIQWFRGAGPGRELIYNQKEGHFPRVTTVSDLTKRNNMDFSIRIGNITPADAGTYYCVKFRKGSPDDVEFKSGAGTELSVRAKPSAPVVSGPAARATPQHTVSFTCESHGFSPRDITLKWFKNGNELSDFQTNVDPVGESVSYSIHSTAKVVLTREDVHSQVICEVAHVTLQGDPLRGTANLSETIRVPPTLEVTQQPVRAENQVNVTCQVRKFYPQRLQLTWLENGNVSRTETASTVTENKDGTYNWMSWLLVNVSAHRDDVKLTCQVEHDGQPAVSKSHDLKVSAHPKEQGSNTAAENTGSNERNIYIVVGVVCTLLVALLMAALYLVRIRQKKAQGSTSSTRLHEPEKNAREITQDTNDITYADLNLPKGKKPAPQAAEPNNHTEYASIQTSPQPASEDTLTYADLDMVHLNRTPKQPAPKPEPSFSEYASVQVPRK

EC50 (read off the curve) [1]: ~0.04 µg/mL
EC50 (read off the curve) [2]: ~0.04 µg/mL
IC50 (read off the curve) [3]: ~0.4 µg/mL
IC50 (read off the curve) [4]: ~0.4 µg/mL
B1: cF44 (IgG1) (antibody, V domains shown)
VH: EVQLVESGGGLVQPGRSLKLSCAASGFTFSNYYMAWVRQAPTKGLEWVTYITTGGGSTYFRDSVKGRFTISRDNAESTLYLQMDSLRSEDTATYYCTAANYGGSYFDYWGQGVMVTVSS
VL: DVQMTQSPSNLAASPGESVSINCKASKSISKYLAWYQQKPGKANKLLIYSGSTLQSGTPSRFSGSGSGTDFTLTIRNLEPEDFGLYYCQQHNEYPPTFGAGTKLELK
notes: Human IgG1 constant region; also called cF44 IgG1 type

EC50 (read off the curve) [1]: ~0.05 µg/mL
EC50 (read off the curve) [2]: ~0.05 µg/mL
IC50 (read off the curve) [3]: ~0.5 µg/mL
IC50 (read off the curve) [4]: ~0.4 µg/mL
B2: cF44 (IgG4p) (antibody, V domains shown)
VH: B1 VH
VL: B1 VL
notes: Human IgG4p (PRO mutation) constant region; also called cF44 IgG4p type

EC50 (read off the curve) [1]: ~0.04 µg/mL
EC50 (read off the curve) [2]: ~0.04 µg/mL
IC50 (read off the curve) [3]: ~0.4 µg/mL
IC50 (read off the curve) [4]: ~0.3 µg/mL
B3: cF44 (IgG2) (antibody, V domains shown)
VH: B1 VH
VL: B1 VL
notes: Human IgG2 constant region; also called cF44 IgG2 type

Kd [5]: 11.7 nM
IC50 [6]: 2.32 µg/mL
EC50 (read off the curve) [7]: ~0.04 µg/mL
B4: OSE-172 (antibody, human IgG4 S228P, kappa, V domains shown)
VH: EVQLVQSGAEVKKPGESLRISCKASGYSFTSYWVHWVRQMPGKGLEWMGNIDPSDSDTHYSPSFQGHVTLSVDKSISTAYLQLSSLKASDTAMYYCVRGGTGTLAYFAYWGQGTLVTVSS
VL: DVVMTQSPLSLPVTLGQPASISCRSSQSLVHSYGNTYLYWFQQRPGQSPRLLIYRVSNRFSGVPDRFSGSGSGTDFTLKISRVEAEDVGVYYCFQGTHVPYTFGGGTKVEIKR
notes: IgG4Pro heavy chain
